This is an account of results in the supplement of paper PMC5998384.

Data set [1] has as its system HeLa Kyoto. Nature of the data set: thermal stability score vs G1/S (z-score of summed log2 fold changes over temperatures); higher = more thermally stable than in G1/S.
Data set [2] has as its system HeLa Kyoto. As to the kind of experiment: solubility in G1/S (NP-40 vs SDS abundance) (log2 ratio); higher = more soluble. To be noted: cell cycle stage: G1/S.
For data set [3], the system named is HeLa Kyoto. Nature of the data set: solubility change mitosis vs G1/S (difference of NP-40 vs SDS log2 ratios) (log2 ratio difference); higher = more soluble in mitosis.
Data set [4] relates to HeLa Kyoto. As to the kind of experiment: melting temperature (median over replicates), in situ; higher = more thermally stable.
The mark [5] stands for this setting: cell cycle stage: early G1 (4.5 h after nocodazole release).
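For melting temperature (median over replicates), in situ in this document: HeLa Kyoto cells synchronized by double thymidine or nocodazole block, proteins quantified by TMT10plex mass spectrometry, three independent biological replicates.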
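For solubility change mitosis vs G1/S (difference of NP-40 vs SDS log2 ratios) in this document: synchronized HeLa Kyoto cells (double thymidine block for G1/S, nocodazole release for mitosis), protein amounts in NP-40 versus SDS lysates quantified by mass spectrometry, three biological replicates.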
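For solubility in G1/S (NP-40 vs SDS abundance) in this document: HeLa Kyoto cells arrested at G1/S by double thymidine block, proteins quantified by TMT10plex mass spectrometry in mild NP-40 versus SDS extracts, three biological replicates.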
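For thermal stability score vs G1/S (z-score of summed log2 fold changes over temperatures) in this document: synchronized HeLa Kyoto cells, proteins quantified by TMT10plex mass spectrometry, three biological replicates, mitosis taken 0.5 h after nocodazole release, G1/S directly after double thymidine block.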

As for “MAGAASPCANGCGPGAPSDAEVLHLCRSLEVGTVMTLFYSKKSQRPERKTFQVKLETRQITWSRGADKIEGAIDIREIKEIRPGKTSRDFDRYQEDPAFRPDQSHCFVILYGMEFRLKTLSLQATSEDEVNMWIKGLTWLMEDTLQAPTPLQIERWLRKQFYSVDRNREDRISAKDLKNMLSQVNYRVPNMRFLRERLTDLEQRSGDITYGQFAQLYRSLMYSAQKTMDLPFLEASTLRAGERPELCRVSLPEFQQFLLDYQGELWAVDRLQVQEFMLSFLRDPLREIEEPYFFLDEFVTFLFSKENSVWNSQLDAVCPDTMNNPLSHYWISSSHNTYLTGDQFSSESSLEAYARCLRMGCRCIELDCWDGPDGMPVIYHGHTLTTKIKFSDVLHTIKEHAFVASEYPVILSIEDHCSIAQQRNMAQYFKKVLGDTLLTKPVEISADGLPSPNQLKRKILIKHKKLAEGSAYEEVPTSMMYSENDISNSIKNGILYLEDPVNHEWYPHYFVLTSSKIYYSEETSSDQGNEDEEEPKEVSSSTELHSNEKWFHGKLGAGRDGRHIAERLLTEYCIETGAPDGSFLVRESETFVGDYTLSFWRNGKVQHCRIHSRQDAGTPKFFLTDNLVFDSLYDLITHYQQVPLRCNEFEMRLSEPVPQTNAHESKEWYHASLTRAQAEHMLMRVPRDGAFLVRKRNEPNSYAISFRAEGKIKHCRVQQEGQTVMLGNSEFDSLVDLISYYEKHPLYRKMKLRYPINEEALEKIGTAEPDYGALYEGRNPGFYVEANPMPTFKCAVKALFDYKAQREDELTFIKSAIIQNVEKQEGGWWRGDYGGKKQLWFPSNYVEEMVNPVALEPEREHLDENSPLGDLLRGVLDVPACQIAIRPEGKNNRLFVFSISMASVAHWSLDVAADSQEELQDWVKKIREVAQTADARLTEGKIMERRKKIALELSELVVYCRPVPFDEEKIGTERACYRDMSSFPETKAEKYVNKAKGKKFLQYNRLQLSRIYPKGQRLDSSNYDPLPMWICGSQLVALNFQTPDKPMQMNQALFMTGRHCGYVLQPSTMRDEAFDPFDKSSLRGLEPCAISIEVLGARHLPKNGRGIVCPFVEIEVAGAEYDSTKQKTEFVVDNGLNPVWPAKPFHFQISNPEFAFLRFVVYEEDMFSDQNFLAQATFPVKGLKTGYRAVPLKNNYSEDLELASLLIKIDIFPAKENGDLSPFSGTSLRERGSDASGQLFHGRAREGSFESRYQQPFEDFRISQEHLADHFDSRERRAPRRTRVNGDNRL [PLCG1]”, the thermal stability score in data set [1] (setting [5]) is -0.13; in data set [1] (cell cycle stage: mitosis) it was -0.0513. Further, in data set [2], the “solubility in G1/S (log2)” value was -0.111. Further, the “solubility change mitosis (log2)” value in data set [3] was -0.123. Also, the melting temperature in data set [4] (cell cycle stage: G1/S) and in data set [4] (cell cycle stage: mitosis) was 50.2 °C throughout.

Consider “MAGAEGAAGRQSELEPVVSLVDVLEEDEELENEACAVLGGSDSEKCSYSQGSVKRQALYACSTCTPEGEEPAGICLACSYECHGSHKLFELYTKRNFRCDCGNSKFKNLECKLLPDKAKVNSGNKYNDNFFGLYCICKRPYPDPEDEIPDEMIQCVVCEDWFHGRHLGAIPPESGDFQEMVCQACMKRCSFLWAYAAQLAVTKISTEDDGLVRNIDGIGDQEVIKPENGEHQDSTLKEDVPEQGKDDVREVKVEQNSEPCAGSSSESDLQTVFKNESLNAESKSGCKLQELKAKQLIKKDTATYWPLNWRSKLCTCQDCMKMYGDLDVLFLTDEYDTVLAYENKGKIAQATDRSDPLMDTLSSMNRVQQVELICEYNDLKTELKDYLKRFADEGTVVKREDIQQFFEEFQSKKRRRVDGMQYYCS [UBR7]”, for which the thermal stability score in data set [1] (setting [5]) was -0.155; in data set [1] (cell cycle stage: mitosis), 0.512. The “solubility in G1/S (log2)” value in data set [2] was determined as 0.163. In addition, the “solubility change mitosis (log2)” value in data set [3] is -0.0607. For the same sequence, the melting temperature in data set [4] (cell cycle stage: G1/S) is 49.9 °C; in data set [4] (cell cycle stage: mitosis), 50.7 °C.

With “MAGAQPGVHALQLEPPTVVETLRRGSKFIKWDEETSSRNLVTLRVDPNGFFLYWTGPNMEVDTLDISSIRDTRTGRYARLPKDPKIREVLGFGGPDARLEEKLMTVVSGPDPVNTVFLNFMAVQDDTAKVWSEELFKLAMNILAQNASRNTFLRKAYTKLKLQVNQDGRIPVKNILKMFSADKKRVETALESCGLKFNRSESIRPDEFSLEIFERFLNKLCLRPDIDKILLEIGAKGKPYLTLEQLMDFINQKQRDPRLNEVLYPPLRPSQARLLIEKYEPNQQFLERDQMSMEGFSRYLGGEENGILPLEALDLSTDMTQPLSAYFINSSHNTYLTAGQLAGTSSVEMYRQALLWGCRCVELDVWKGRPPEEEPFITHGFTMTTEVPLRDVLEAIAETAFKTSPYPVILSFENHVDSAKQQAKMAEYCRSIFGDALLIEPLDKYPLAPGVPLPSPQDLMGRILVKNKKRHRPSAGGPDSAGRKRPLEQSNSALSESSAATEPSSPQLGSPSSDSCPGLSNGEEVGLEKPSLEPQKSLGDEGLNRGPYVLGPADREDEEEDEEEEEQTDPKKPTTDEGTASSEVNATEEMSTLVNYIEPVKFKSFEAARKRNKCFEMSSFVETKAMEQLTKSPMEFVEYNKQQLSRIYPKGTRVDSSNYMPQLFWNVGCQLVALNFQTLDVAMQLNAGVFEYNGRSGYLLKPEFMRRPDKSFDPFTEVIVDGIVANALRVKVISGQFLSDRKVGIYVEVDMFGLPVDTRRKYRTRTSQGNSFNPVWDEEPFDFPKVVLPTLASLRIAAFEEGGKFVGHRILPVSAIRSGYHYVCLRNEANQPLCLPALLIYTEASDYIPDDHQDYAEALINPIKHVSLMDQRARQLAALIGESEAQAGQETCQDTQSQQLGSQPSSNPTPSPLDASPRRPPGPTTSPASTSLSSPGQRDDLIASILSEVAPTPLDELRGHKALVKLRSRQERDLRELRKKHQRKAVTLTRRLLDGLAQAQAEGRCRLRPGALGGAADVEDTKEGEDEAKRYQEFQNRQVQSLLELREAQVDAEAQRRLEHLRQALQRLREVVLDANTTQFKRLKEMNEREKKELQKILDRKRHNSISEAKMRDKHKKEAELTEINRRHITESVNSIRRLEEAQKQRHDRLVAGQQQVLQQLAEEEPKLLAQLAQECQEQRARLPQEIRRSLLGEMPEGLGDGPLVACASNGHAPGSSGHLSGADSESQEENTQL [PLCB3]”, the thermal stability score is 0.256 in data set [1] (setting [5]) and -0.25 in data set [1] (cell cycle stage: mitosis). In addition, the “solubility in G1/S (log2)” value in data set [2] is 0.0201. The “solubility change mitosis (log2)” value in data set [3] was found to be 0.0123. In addition, the figures for the melting temperature in data set [4] (cell cycle stage: G1/S) and in data set [4] (cell cycle stage: mitosis) were 52.7 °C and 51.7 °C, respectively.

Turning to “MAGDVGGRSCTDSELLLHPELLSQEFLLLTLEQKNIAVETDVRVNKDSLTDLYVQHAIPLPQRDLPKNRWGKMMEKKREQHEIKNETKRSSTVDGLRKRPLIVFDGSSTSTSIKVKKTENGDNDRLKPPPQASFTSNAFRKLSNSSSSVSPLILSSNLPVNNKTEHNNNDAKQNHDLTHRKSPSGPVKSPPLSPVGTTPVKLKRAAPKEEAEAMNNLKPPQAKRKIQHVTWP [C2ORF49]”, the thermal stability score in data set [1] (setting [5]) was -1.3; in data set [1] (cell cycle stage: mitosis) it was -1.02. Moreover, in data set [2], the “solubility in G1/S (log2)” value came out at 0.348. The “solubility change mitosis (log2)” value in data set [3] came out at 0.015. The results for the melting temperature in data set [4] (cell cycle stage: G1/S) and in data set [4] (cell cycle stage: mitosis) were 50.3 °C and 51.3 °C, respectively.

In the case of “MAGELADKKDRDASPSKEERKRSRTPDRERDRDRDRKSSPSKDRKRHRSRDRRRGGSRSRSRSRSKSAERERRHKERERDKERDRNKKDRDRDKDGHRRDKDRKRSSLSPGRGKDFKSRKDRDSKKDEEDEHGDKKPKAQPLSLEELLAKKKAEEEAEAKPKFLSKAEREAEALKRRQQEVEERQRMLEEERKKRKQFQDLGRKMLEDPQERERRERRERMERETNGNEDEEGRQKIREEKDKSKELHAIKERYLGGIKKRRRTRHLNDRKFVFEWDASEDTSIDYNPLYKERHQVQLLGRGFIAGIDLKQQKREQSRFYGDLMEKRRTLEEKEQEEARLRKLRKKEAKQRWDDRHWSQKKLDEMTDRDWRIFREDYSITTKGGKIPNPIRSWKDSSLPPHILEVIDKCGYKEPTPIQRQAIPIGLQNRDIIGVAETGSGKTAAFLIPLLVWITTLPKIDRIEESDQGPYAIILAPTRELAQQIEEETIKFGKPLGIRTVAVIGGISREDQGFRLRMGCEIVIATPGRLIDVLENRYLVLSRCTYVVLDEADRMIDMGFEPDVQKILEHMPVSNQKPDTDEAEDPEKMLANFESGKHKYRQTVMFTATMPPAVERLARSYLRRPAVVYIGSAGKPHERVEQKVFLMSESEKRKKLLAILEQGFDPPIIIFVNQKKGCDVLAKSLEKMGYNACTLHGGKGQEQREFALSNLKAGAKDILVATDVAGRGIDIQDVSMVVNYDMAKNIEDYIHRIGRTGRAGKSGVAITFLTKEDSAVFYELKQAILESPVSSCPPELANHPDAQHKPGTILTKKRREETIFA [DDX23]”, the thermal stability score in data set [1] (setting [5]) stood at 1.14; in data set [1] (cell cycle stage: mitosis) it was 3.64. The “solubility in G1/S (log2)” value in data set [2] is -1.02. Further, the “solubility change mitosis (log2)” value in data set [3] amounted to 0.24. The melting temperature stood at 48.8 °C in data set [4] (cell cycle stage: G1/S) and 50.4 °C in data set [4] (cell cycle stage: mitosis).

As to “MAGGAREVLTLQLGHFAGFVGAHWWNQQDAALGRATDSKEPPGELCPDVLYRTGRTLHGQETYTPRLILMDLKGSLSSLKEEGGLYRDKQLDAAIAWQGKLTTHKEELYPKNPYLQDFLSAEGVLSSDGVWRVKSIPNGKGSSPLPTATTPKPLIPTEASIRVWSDFLRVHLHPRSICMIQKYNHDGEAGRLEAFGQGESVLKEPKYQEELEDRLHFYVEECDYLQGFQILCDLHDGFSGVGAKAAELLQDEYSGRGIITWGLLPGPYHRGEAQRNIYRLLNTAFGLVHLTAHSSLVCPLSLGGSLGLRPEPPVSFPYLHYDATLPFHCSAILATALDTVTVPYRLCSSPVSMVHLADMLSFCGKKVVTAGAIIPFPLAPGQSLPDSLMQFGGATPWTPLSACGEPSGTRCFAQSVVLRGIDRACHTSQLTPGTPPPSALHACTTGEEILAQYLQQQQPGVMSSSHLLLTPCRVAPPYPHLFSSCSPPGMVLDGSPKGAAVESIPVFGALCSSSSLHQTLEALARDLTKLDLRRWASFMDAGVEHDDVAELLQELQSLAQCYQGGDSLVD [MSTO1]”, the results for the thermal stability score in data set [1] (setting [5]) and in data set [1] (cell cycle stage: mitosis) were 0.792 and 0.318, respectively. The “solubility in G1/S (log2)” value in data set [2] worked out at 0.162. Moreover, in data set [3], the “solubility change mitosis (log2)” value is -0.0764. The values for the melting temperature in data set [4] (cell cycle stage: G1/S) and in data set [4] (cell cycle stage: mitosis) were 51.2 °C and 51.1 °C, respectively.
